The record followed here is US20070026478A1, “Hemiasterlin affinity probes and their uses” (WYETH, priority 2002, published 2007).

“And” between values parts separate entries of the source, which are not always exact repeats. Equal entries are not always repeated.

Test [1] addresses microtubule associated protein (MAP)-rich bovine brain tubulin (bovine) (UniProt P81947). The test can be described thus: 100 µM HTI-286 against 0.25 µM [3H]-Probe 1 photolabeling of tubulin, 37° C.
The target is the same in test [2]. The test can be described thus: 100 µM HTI-286 against 0.25 µM [3H]-Probe 1 photolabeling of tubulin, room temperature.
Test [3] shares this target. The test can be described thus: reversible binding to bovine brain tubulin (range given in Table 1).
For test [4] the target is unchanged.
Test [5] has as its target α-tubulin of bovine brain tubulin (bovine) (UniProt P81947). The test can be described thus: 1 mM HTI-286 against 2.5 µM [3H]-Probe 1 photolabeling, fluorography.
The target in test [6] is microtubule associated protein (MAP)-rich bovine brain tubulin (bovine) (UniProt P81947). The test can be described thus: 100 µM HTI-286 against 0.25 µM [3H]-Probe 2 photolabeling of tubulin, room temperature.

“HTI-286 (N,β,β-trimethyl-L-phenylalanyl-N1-[(1S,2E)-3-carboxy-1-isopropylbut-2-enyl]-N1,3-dimethyl-L-valinamide trifluoroacetate) (peptide)”: the Inhibition (%) (labeling against control = 100) in test [1] worked out at 47%; in test [2] it was 27%. For the same substance, the Kd in test [3] was 400 nM and 800 nM. Also, in test [4], the tubulin polymerization (% inhibition) amounted to 87.5%. For the same substance, in test [5], the percent inhibition of Probe 1 incorporation was more than 50%. Also, the percent inhibition of Probe 2 labeling (so in the source) in test [6] was determined as 45%.

In general, Kd refers to the free concentration of one partner at which half of the binding sites on the other are occupied at equilibrium, for simple one-to-one binding. Lower therefore signals tighter binding.
